The values below come from publication PMC11086627, “Substrate displacement of CK1 C-termini regulates kinase specificity” (Science Advances, 2024).

The target in experiment [1] is Hhp1 Cter-6P peptide (amino acids 297 to 365 of Hhp1, phosphorylated at six sites, biotin-conjugated) (S. pombe) (UniProt P40235). Description: pull-down; equilibrium binding assay: peptide-conjugated streptavidin beads at 0 to 847 μM peptide incubated with 100 ng of MBP-Hhp1ΔC in binding buffer [50 mM tris (pH 7.0), 25 mM NaCl, 1 mM EDTA, 1 mM DTT], 1 hour at 4°C; unbound kinase in the supernatant by Western blot and densitometry; one-site specific binding fit. (In general: In western blotting, separated proteins are transferred to a membrane and probed.)

Experiment [2] has the same target. Description: pull-down; competitive equilibrium binding assay: as the equilibrium binding assay on peptide beads, with 25 μM substrate (casein or Rec11) added along with the kinase; fit constrained to Bmax = 1 for the apparent Kd; Ki from Kd(app)=Kd(1+[I]/Ki).
Experiment [3] concerns the target Hhp1 C-terminus (Cter), 297-365 (UniProt P40235). Description: equilibrium bead binding, supernatant depletion. The conditions noted are these: reference: wild-type Hhp1ΔC; sites T221,T222.
Experiment [4] has as its target CK1ε CK1εΔC, 1-294 (UniProt P49674). As to the kind of experiment: biotin-peptide streptavidin bead pull-down. The note with it: reference: unphosphorylated EC peptide; sites S389,S390,S391,S405,T407,S408.
Experiment [5] has as its target Hhp1 Hhp1ΔC, 1-296 (UniProt P40235). As to the kind of experiment: biotin-peptide streptavidin bead pull-down. The note with it: reference: unphosphorylated Cter peptide; sites S326,S327,T345,T346,S354,T356.
Experiment [6] addresses MBP-Hhp1ΔC (Hhp1 amino acids 1 to 296) (S. pombe) (UniProt P40235). As to the kind of experiment: pull-down; competitive equilibrium binding assay: as the equilibrium binding assay on peptide beads, with 25 μM substrate (casein or Rec11) added along with the kinase; fit constrained to Bmax = 1 for the apparent Kd; Ki from Kd(app)=Kd(1+[I]/Ki).
For experiment [7], the target named is T1, MBP-Hhp1ΔC (Hhp1 amino acids 1 to 296) (S. pombe, UniProt P40235 1-296).
T1 construct: Hhp1, CK1 enzyme of Schizosaccharomyces pombe, C-terminally truncated, amino acids 1-296; cDNA cloned into pMAL-C2; also called Hhp1-delC; Hhp1 kinase domain; source: E. coli Rosetta2(DE3)pLysS, purified (amylose beads, eluted with maltose)
T1 sequence (looked up): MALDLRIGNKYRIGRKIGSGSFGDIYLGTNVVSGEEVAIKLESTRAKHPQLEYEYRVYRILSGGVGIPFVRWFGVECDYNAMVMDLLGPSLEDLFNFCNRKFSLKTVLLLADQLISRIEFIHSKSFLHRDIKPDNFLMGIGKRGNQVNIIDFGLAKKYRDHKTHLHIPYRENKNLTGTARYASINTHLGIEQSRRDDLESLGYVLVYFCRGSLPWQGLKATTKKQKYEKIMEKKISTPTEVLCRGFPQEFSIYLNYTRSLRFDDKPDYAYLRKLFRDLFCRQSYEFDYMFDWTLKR
The description is as above. The conditions noted are these: both partners purified.

Experiment [8] addresses T2, MBP-Hhp1ΔC (Hhp1 amino acids 1 to 296) (S. pombe, UniProt P40235 1-296).
T2 chain: T1 sequence (looked up)
Description: apparent, in the presence of 25 uM Rec11.

In experiment [9] the target is T2, MBP-Hhp1ΔC (Hhp1 amino acids 1 to 296). Description: ITC; second replicate. For orientation: Isothermal titration calorimetry measures the heat released or taken up as one component is titrated into another.
For experiment [10], the target named is MBP-Hhp1ΔC (Hhp1 amino acids 1 to 296) (S. pombe) (UniProt P40235). As to the kind of experiment: ITC; Nano-ITC, 25°C, 10 mM NaPO4 (pH 7.5), 150 mM NaCl, 0.25 mM TCEP; cell: 100 μM MBP-Hhp1ΔC or MBP-CK1εΔC; syringe: 2 mM peptide; single-site binding model; duplicate.
Experiment [11] addresses T3, MBP-Hhp1ΔC-VV (S. pombe, UniProt P40235 1-296).
T3 chain: T1 sequence (looked up) with T221V, T222V

Experiment [12] concerns the target T4, MBP-CK1εΔC-T220N (human, UniProt P49674 1-294, T220N).
T4 construct: human CK1ε, amino acids 1-294, kinase domain autophosphorylation site T220 mutated; source: E. coli Rosetta2(DE3)pLysS, purified (amylose beads, eluted with maltose)
T4 sequence (looked up): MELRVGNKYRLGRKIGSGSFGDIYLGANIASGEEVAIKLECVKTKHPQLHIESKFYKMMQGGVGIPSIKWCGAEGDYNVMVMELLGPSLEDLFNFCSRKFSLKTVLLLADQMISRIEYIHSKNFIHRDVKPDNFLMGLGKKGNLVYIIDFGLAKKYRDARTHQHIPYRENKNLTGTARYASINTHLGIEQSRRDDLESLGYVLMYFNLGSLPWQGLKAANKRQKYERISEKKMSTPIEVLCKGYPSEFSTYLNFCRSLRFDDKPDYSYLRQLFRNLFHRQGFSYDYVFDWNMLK
Description: pull-down; biotin peptide on streptavidin sepharose (500 μM peptide) incubated with 2 μg of MBP-kinaseΔC in binding buffer [50 mM tris (pH 7.0), 25 mM NaCl, 1 mM EDTA, 1 mM DTT], 1 hour at 4°C; beads blocked in 5% BSA; bound protein detected by Western blot with anti-MBP. The note with it: both partners purified.

Experiment [13] addresses MBP-CK1εΔC (human CK1ε amino acids 1-294) (human) (UniProt P49674). Description: ITC; Nano-ITC, 25°C, 10 mM NaPO4 (pH 7.5), 150 mM NaCl, 0.25 mM TCEP; cell: 100 μM MBP-Hhp1ΔC or MBP-CK1εΔC; syringe: 2 mM peptide; single-site binding model; duplicate.

Where a chain is given by its changes, count along the chain named. Square brackets hold non-standard residues; d marks the D form. Ends that are not written are not given here. * marks the point of attachment. Biotin = O=C1N[C@H]2[C@H](CS[C@H]2CCCCC(=O)*)N1; pT = C[C@@H](OP(=O)(O)O)[C@H](N)C(=O)O; pS = N[C@@H](COP(=O)(O)O)C(=O)O

Sequence of CK1ε CK1εΔC, 1-294 (P49674 383-416, stated change not applied): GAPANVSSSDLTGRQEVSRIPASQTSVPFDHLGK
Sequence of MBP-CK1εΔC (human CK1ε amino acids 1-294) (human) (P49674 1-294, stated change not applied): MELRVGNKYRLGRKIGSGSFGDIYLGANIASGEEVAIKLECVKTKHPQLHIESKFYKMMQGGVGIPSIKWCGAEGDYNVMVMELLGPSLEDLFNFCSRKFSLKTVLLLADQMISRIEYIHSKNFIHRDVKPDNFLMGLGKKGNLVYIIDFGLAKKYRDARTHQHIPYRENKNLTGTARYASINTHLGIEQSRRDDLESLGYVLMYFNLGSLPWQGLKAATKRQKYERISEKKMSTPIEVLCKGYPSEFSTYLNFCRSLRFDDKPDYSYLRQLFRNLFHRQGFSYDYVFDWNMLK

For the molecule “MBP-Hhp1ΔC (Hhp1 amino acids 1 to 296) (from UniProt P40235 1-296) (domain or fragment)”, the Kd in experiment [1] was found to be 240 µM. Besides, in experiment [2], the Kd(app) in the presence of 25 μM casein came out at 658 µM.

As to “Hhp1 Hhp1ΔC, 1-296 (from UniProt P40235) Hhp1ΔC-VV”, the “binding against the reference” value in experiment [3] was “gained”.

For “CK1ε extreme C-terminus (EC), 383-416 (from UniProt P49674) EC-6P peptide”, the “binding against the reference” value in experiment [4] was “gained”.

Turning to “Hhp1 C-terminus (Cter), 297-365 (from UniProt P40235) Cter-6P peptide”, the “binding against the reference” value in [5] was “gained”.

Consider “dephosphorylated alpha casein (natural protein)”, for which the Ki in [6] is 14 µM.

B1: GST-Rec11-N3 (N terminus of Rec11, amino acids 1-33) (domain or fragment, UniProt Q92380 1-33, looked up)
chain: MRFEFESDASSHLNEVLTELESVELENVEYEGP
notes: Rec11, physiological Hhp1 substrate involved in meiosis, N terminus, amino acids 1-33; source: expressed and purified as previously described (16)
Regarding B1, the Ki in [7] was determined as 32 µM.

B2: Hhp1 Cter-6P peptide (amino acids 297 to 365 of Hhp1, phosphorylated at six sites, biotin-conjugated) (peptide)
peptide: Biotin-KTQQDQQHQQQLQQQLSATPQAINPPPER[pS][pS]FRNYQKQNFDEKGGDIN[pT][pT]VPVINDP[pS]A[pT]GAQYINRPN
B2: the Kd came out at 425 µM in experiment [8], 283 µM in [9] and 335 µM in experiment [10].

B3: Hhp1 Cter peptide (amino acids 297 to 365 of Hhp1, unphosphorylated, biotin-conjugated) (peptide)
peptide: Biotin-KTQQDQQHQQQLQQQLSATPQAINPPPERSSFRNYQKQNFDEKGGDINTTVPVINDPSATGAQYINRPN
In turn, B3 registered a Kd in [11] of 269 µM.

B4: CK1ε EC-6P peptide (amino acids 383 to 416 of CK1ε, phosphorylated at six sites, biotin-conjugated) (peptide, UniProt P49674 383-416, looked up)
peptide: Biotin-GAPANV[pS][pS][pS]DLTGRQEVSRIPA[pS]Q[pT][pS]VPFDHLGK
notes: human CK1ε, final 34 amino acids, 383-416; source: synthetic peptide (LifeTein LLC)
Consider B4, for which, in experiment [12], the binding result is recorded as “binds”. In [13], this molecule returned a Kd of 343 µM.
